The values below come from patent US20140134169A1, “Methods of Treating Ovarian Cancer with Dll4 Antagonists” (Regeneron Pharmaceuticals, Inc., priority 2012, published 2014).

Holding throughout (assay type): in vivo, human
One assay deals with A2780 cells. The assay is described as follows: A2780 ovarian xenograft (intraperitoneal) tumor growth inhibition. Conditions: SCID mice (native murine Dll4); REGN421 2.5 mg/kg 1x/week, mDll4Ab1 5 mg/kg 1x/week, VEGF-Trap 10 mg/kg 2x/week. The protocol:
(§1) Ovarian tumor xenograft cells were implanted into humanized Dll4 SCID mice or vendor SCID mice (i.e., SCID mice expressing native murine Dll4). After implantation, mice were treated with REGN421 (anti-human Dll4 antibody, binds to human Dll4), mDll4Ab1 (anti-murine Dll4 antibody, binds to murine Dll4), or a human Fc domain control protein. In one study, mice were treated with VEGF-Trap, mDll4Ab1 or VEGF-Trap plus mDll4Ab1. TOV-112D cells (5×10^6) were implanted subcutaneously into the right flank of humanized Dll4 (n=4) or vendor SCID mice (n=7). Treatment with REGN421 (2.5 mg/kg, 1×/week) or mDll4Ab1 (5 mg/kg, 1×/week) vs. hFc control was initiated one week after tumor cell implantation. Animals were treated for 2 to 3 weeks. A2780 cells (2×10^6) were implanted intraperitoneally into humanized Dll4 or vendor SCID mice (n=4-5). Treatment with REGN421 (2.5 mg/kg, 1×/week) or mDll4Ab1 (5 mg/kg, 1×/week) vs. hFc control was initiated one week after tumor cell implantation. For the A2780 combination study, simultaneous treatment with mDll4Ab1 (5 mg/kg, 1×/week) and VEGF-Trap (10 mg/kg, 2×/week) was initiated one week after tumor cell implantation. A VEGF-Trap single treatment arm was included in this study. Animals bearing A2780 tumors were treated for 4-5 weeks. SKOV-3 cells (5×10^6) in matrigel were implanted subcutaneously and tumor-bearing animals (n=10) were dosed with REGN421 (2.5 mg/kg) and mDll4Ab1 (5 mg/kg) once weekly. OVCAR-3 cells (1×10^7) were implanted subcutaneously into the right flank of vendor SCID mice (n=7). Treatment with mDll4Ab1 (5 mg/kg 1×/week) vs. hFc control was initiated 66 days after tumor cell implantation. Animals were treated for a total of 5 weeks. Tumor growth inhibition (TGI) was measured as detailed above.

The test system of assay [1] is TOV-112D ovarian tumor xenografts. Briefly: Tumor microvascular density by CD31 staining, TOV-112D xenograft. Conditions: native Dll4 SCID mice. The protocol:
(§2) Quantitation of tumor microvascular density was evaluated immunohistochemically using CD31 staining. Native Dll4 SCID mice with TOV-112D and SKOV-3 ovarian tumor xenografts were treated with the anti-murine Dll4 antibody mDll4Ab1 or hFc (control). […] A reduction of tumor perfusion was also seen (data not shown).

For assay [2], the system named is TOV-112D and SKOV-3 ovarian tumor xenografts. Briefly: Tumor perfusion in ovarian tumor xenografts. As to conditions: data not shown. The protocol:
as §2

The subject of the next assay is SKOV-3 cells. Briefly: SKOV-3 ovarian xenograft (subcutaneous) tumor growth inhibition. Conditions: SCID mice; mDll4Ab1 5 mg/kg once weekly. The protocol: as §1, with “SKOV-3 cells (5×10^6) in matrigel were implanted subcutaneously and tumor-bearing animals (n=10) were dosed with REGN421 (2.5 mg/kg) and mDll4Ab1 (5 mg/kg) once weekly. OVCAR-3 cells (1×10^7) were implanted subcutaneously into the right flank of vendor SCID mice (n=7). Treatment with mDll4Ab1 (5 mg/kg 1×/week) vs. hFc control was initiated 66 days after tumor cell implantation. Animals were treated for a total of 5 weeks.” left out

For assay [3], the system named is SKOV-3 ovarian tumor xenografts. Briefly: Tumor microvascular density by CD31 staining, SKOV-3 xenograft. Conditions: native Dll4 SCID mice. The protocol: as §2
A further assay deals with OVCAR-3 cells. The assay is described as follows: OVCAR-3 ovarian xenograft (subcutaneous) tumor growth inhibition. Conditions: SCID mice; mDll4Ab1 5 mg/kg 1x/week, 5 weeks. The method, then: as §1, with “SKOV-3 cells (5×10^6) in matrigel were implanted subcutaneously and tumor-bearing animals (n=10) were dosed with REGN421 (2.5 mg/kg) and mDll4Ab1 (5 mg/kg) once weekly. OVCAR-3 cells (1×10^7) were implanted subcutaneously into the right flank of vendor SCID mice (n=7). Treatment with mDll4Ab1 (5 mg/kg 1×/week) vs. hFc control was initiated 66 days after tumor cell implantation. Animals were treated for a total of 5 weeks.” left out

The test system of the next assay is TOV-112D cells. The assay is described as follows: TOV-112D ovarian xenograft (subcutaneous) tumor growth inhibition. As to conditions: SCID mice (native murine Dll4); REGN421 2.5 mg/kg or mDll4Ab1 5 mg/kg 1x/week. The protocol:
as §1

B1: mDII4Ab1: anti-murine Dll4 antibody with LCVR and HCVR of SEQ ID NO:122 and 123 (antibody)
heavy: EVQLVESGGDLVKPGGSLKLSCTASGFTFSNYGMSWVRQTPDKRLGWVATISTAGSYTYYPDSVKGRFTISRDNAKNTLYLQMSSLKSEDTAMYYCARHPGVADFDYWGQGTTLTVSSAKTTAPSVYPLAPVCGDTTGSSVTLGCLVKGYFPEPVTLTWNSGSLSSGVHTFPAVLQSDLYTLSSSVTVTSSTWPSQSITCNVAHPASSTKVDKKIEPRGPTIKPCPPCKCPAPNLLGGPSVFIFPPKIKDVLMISLSPIVTCVVVDVSEDDPDVQISWFVNNVEVHTAQTQTHREDYNSTLRVVSALPIQHQDWMSGKEFKCKVNNKDLPAPIERTISKPKGSVRAPQVYVLPPPEEEMTKKQVTLTCMVTDFMPEDIYVEWTNNGKTELNYKNTEPVLDSDGSYFMYSKLRVEKKNWVERNSYSCSVVHEGLHNHHTTKSFSRTPGK
light: DIVMTQSHKFMSISEGDRVSITCKARQDVTTSVAWYQQKPGQSPKLLIYWASTRHTGVPDRFTGSGSGTDFTLTISSVQAEDLALYYCQQHYSTPYTFGGGTKLEIKRADAAPTVSIFPPSSEQLTSGGASVVCFLNNFYPKDINVKWKIDGSERQNGVLNSWTDQDSKDSTYSMSSTLTLTKDEYERHNSYTCEATHKTSTSPIVKSFNRGEC
Regarding B1, the “% TGI” value in the assay on A2780 cells is recorded as 70%; in the assay with SKOV-3 cells it was 64%; with OVCAR-3 cells, 84%; in the assay with TOV-112D cells, 74%. In addition, the “Increase in Vessel Area vs. hFc (%)” value in assay [1] is on record as 276.5%; in assay [3], 146.8%. Moreover, the “Vessel Area (%), percent vessel fraction over total tumor area” value in assay [1] worked out at 5.53%; in assay [3], 4.36%. The tumor perfusion entry in assay [2] was “reduction”.
